The target in test [1] is CD43 expressed on the surface of COLO 205 colorectal cancer cells (human) (UniProt P16150). Nature of the test: flow cytometry on COLO 205 cells.
The target in test [2] is CD43 on human peripheral T cells (human) (UniProt P16150). Kind of test: flow cytometry on peripheral T cells. (In general: In flow cytometry, cells or beads pass a laser one at a time.)
The target in test [3] is CD43 expressed on the surface of COLO 205 colorectal cancer cells (human) (UniProt P16150). Kind of test: flow cytometry on COLO 205 cells; signal of biotinylated 5F1 (1 microgram/ml, competitor) with unlabeled antibody at 2.46 microgram/ml.
For test [4] the target is unchanged. Nature of the test: flow cytometry on COLO 205 cells; signal of biotinylated 5F1 (1 microgram/ml, competitor) with unlabeled antibody at 7.4 microgram/ml.
Test [5] deals with CD43 on Jurkat cells (lymphoblastoid leukemia cell line; ATCC TIB-152) (human) (UniProt P16150). Kind of test: flow cytometry on Jurkat cells.
The target of test [6] is CD43 expressed on the surface of COLO 205 colorectal cancer cells (human) (UniProt P16150). Kind of test: flow cytometry on COLO 205 cells; signal of biotinylated 5F1 (1 microgram/ml, competitor) with unlabeled antibody at 0.273 microgram/ml.
For test [7] the target is unchanged. Nature of the test: flow cytometry on COLO 205 cells; signal of biotinylated 5F1 (1 microgram/ml, competitor) with unlabeled antibody at 22.2 microgram/ml.
Test [8] shares this target. Kind of test: flow cytometry on COLO 205 cells; signal of biotinylated 5F1 (1 microgram/ml, competitor) with unlabeled antibody at 0.09 microgram/ml.
The target is the same in test [9]. Nature of the test: flow cytometry on COLO 205 cells; signal of biotinylated 5F1 (1 microgram/ml, competitor) with unlabeled antibody at 0.82 microgram/ml.
A further test addresses T1, 9F9-01-03-21.
T1 construct: Tested as a fusion to an unnamed carrier protein
T1 peptide: YDHHWTNPPTQK
Kind of test: sandwich ELISA, 5F1 coated, peptide-carrier fusion.

The target of another test is T2, 9F9-01-03-24.
T2 construct: Tested as a fusion to an unnamed carrier protein
T2 peptide: AETDYDPDHFTP
Kind of test: sandwich ELISA, 5F1 coated, peptide-carrier fusion. In general terms: An ELISA detects its analyte on a solid surface through an enzyme-linked reagent.

A further test concerns the target T3, 9F9-01-03-25.
T3 construct: Tested as a fusion to an unnamed carrier protein
T3 peptide: EPNMDPNWASPS
Kind of test: sandwich ELISA, 5F1 coated, peptide-carrier fusion.

In the next test the target is T4, 5F1-01-2-23.
T4 construct: Tested as a fusion to an unnamed carrier protein
T4 peptide: WPIPTLMELPSA
Nature of the test: sandwich ELISA, 5F1 coated, peptide-carrier fusion.

In another test the target is T5, 9F9-01-03-17.
T5 construct: Tested as a fusion to an unnamed carrier protein
T5 peptide: AGQKWDPEWPHS
Kind of test: sandwich ELISA, 5F1 coated, peptide-carrier fusion.

The target of a further test is T6, 9F9-01-03-18.
T6 construct: Tested as a fusion to an unnamed carrier protein
T6 peptide: DARYSHDPAWPY
Nature of the test: sandwich ELISA, 5F1 coated, peptide-carrier fusion.

A further test has as its target T7, 5F1-01-2-04 (also: fused to unnamed carrier protein).
T7 construct: Tested as a fusion to an unnamed carrier protein; not shown: the unnamed carrier protein to which the 12-mer was fused (and any linker to it)
T7 peptide: WPIANHENALSA
Kind of test: sandwich ELISA, 5F1 coated, peptide-carrier fusion.

For test [10], the target named is CD43 expressed on the surface of COLO 205 colorectal cancer cells (human) (UniProt P16150). Kind of test: flow cytometry on COLO 205 cells; signal of biotinylated 5F1 (1 microgram/ml, competitor) with unlabeled antibody at 66.7 microgram/ml.
The target is the same in test [11]. Nature of the test: flow cytometry on COLO 205 cells; signal of biotinylated 5F1 (1 microgram/ml, competitor) with unlabeled antibody at 200 microgram/ml.
The target of another test is T8, 5F1-01-2-18 (also: fused to unnamed carrier protein).
T8 construct: Tested as a fusion to an unnamed carrier protein; not shown: the unnamed carrier protein to which the 12-mer was fused (and any linker to it)
T8 peptide: WPISGKHSFWSL
Kind of test: sandwich ELISA, 5F1 coated, peptide-carrier fusion. The protocol:
(§1) To further confirm the tripeptide epitope that antibody 5F1 binds, Sandwich ELISA was performed. 96-well microtiter plates were coated with antibody (5F1 or control antibody 9E10) with 50 μl per well at the concentration of 1 μg/ml over night at 4° C. Plates were blocked by incubation with 0.25% of BSA in PBS (150 μl/well) for 1 hour at 37° C. Plates were then incubated with fusion proteins containing various fragments of polypeptides fused to a carrier protein for 2 hours at room temperature. After washing 4 times with PBS containing 0.05% of Tween 20, plates were then incubated with carrier protein-specific antibody at 2 μg/ml for 1.5 hours at room temperature. After incubation, plates were washed 4 times with PBST. 50 μl of 1 to 3000 diluted Goat anti-carrier protein-specific antibody conjugated with HRP was then added to each well and the plates were incubated for 1 hour at 37° C. Enzyme reaction was carried out by adding substrate of the HRP enzyme to determine the reactivity of the designated polypeptide to these to these two antibodies (5F1 and 9E10). […] Monoclonal antibody 5F1 recognized a tripeptide WPI epitope structure.

For another test, the target named is T9, 5F1-01-2-09 (also: fused to unnamed carrier protein).
T9 construct: Tested as a fusion to an unnamed carrier protein; not shown: the unnamed carrier protein to which the 12-mer was fused (and any linker to it)
T9 peptide: WPIAPNRYLLSS
Nature of the test: sandwich ELISA, 5F1 coated, peptide-carrier fusion. As to the method:
as §1

For another test, the target named is T10, 5F1-01-2-17 (also: fused to unnamed carrier protein).
T10 construct: Tested as a fusion to an unnamed carrier protein; not shown: the unnamed carrier protein to which the 12-mer was fused (and any linker to it)
T10 peptide: WPILDHAVSRPS
Nature of the test: sandwich ELISA, 5F1 coated, peptide-carrier fusion. As to the method:
as §1

For a further test, the target named is T11, 5F1-01-2-06 (also: fused to unnamed carrier protein).
T11 construct: Tested as a fusion to an unnamed carrier protein; not shown: the unnamed carrier protein to which the 12-mer was fused (and any linker to it)
T11 peptide: WPIPPEVEPFKH
Nature of the test: sandwich ELISA, 5F1 coated, peptide-carrier fusion. The protocol:
as §1

The next test deals with T12, 5F1-01-2-13 (also: fused to unnamed carrier protein).
T12 construct: Tested as a fusion to an unnamed carrier protein; not shown: the unnamed carrier protein to which the 12-mer was fused (and any linker to it)
T12 peptide: WPISPQPGARPV
Kind of test: sandwich ELISA, 5F1 coated, peptide-carrier fusion. As to the method: as §1

The next test has as its target T13, 5F1-01-2-14.
T13 construct: Tested as a fusion to an unnamed carrier protein
T13 peptide: WPIHSAHVRYTT
Nature of the test: sandwich ELISA, 5F1 coated, peptide-carrier fusion. The protocol: as §1

A further test deals with T14, 5F1-01-2-21 (also: fused to unnamed carrier protein, order not given here).
T14 construct: Tested as a fusion to an unnamed carrier protein; not shown: the unnamed carrier protein to which the 12-mer was fused (and any linker to it)
T14 peptide: WPIDLMSETPIL
Nature of the test: sandwich ELISA, 5F1 coated, peptide-carrier fusion. The protocol: as §1

For the next test, the target named is T15, 5F1-01-2-22.
T15 construct: Tested as a fusion to an unnamed carrier protein
T15 peptide: WPITNSDSRITW
Kind of test: sandwich ELISA, 5F1 coated, peptide-carrier fusion. As to the method: as §1

For the next test, the target named is T16, 5F1-01-2-16 (also: fused to unnamed carrier protein).
T16 construct: Tested as a fusion to an unnamed carrier protein; not shown: the unnamed carrier protein to which the 12-mer was fused (and any linker to it)
T16 peptide: WPIDIPYAWDFS
Nature of the test: sandwich ELISA, 5F1 coated, peptide-carrier fusion. As to the method: as §1

Test [12] concerns the target CD43 expressed on the surface of COLO 205 colorectal cancer cells (human) (UniProt P16150). Nature of the test: cell-based or functional assay.
Test [13] shares this target. Kind of test: flow cytometry on COLO 205 cells; signal of biotinylated 5F1 (1 microgram/ml, competitor) with unlabeled antibody at 0.03 microgram/ml.
Test [14] concerns the target CD43 expressed on the surface of NCI-N87 gastric cancer cells (human) (UniProt P16150). Nature of the test: flow cytometry on NCI-N87 cells.

Two molecules from patent publication US20160139131A1 (BIOALLIANCE C V, published 2016) can be followed below.

No end group written: not given here.

CD43 expressed on the surface of COLO 205 colorectal cancer cells (human), sequence (P16150 20-400): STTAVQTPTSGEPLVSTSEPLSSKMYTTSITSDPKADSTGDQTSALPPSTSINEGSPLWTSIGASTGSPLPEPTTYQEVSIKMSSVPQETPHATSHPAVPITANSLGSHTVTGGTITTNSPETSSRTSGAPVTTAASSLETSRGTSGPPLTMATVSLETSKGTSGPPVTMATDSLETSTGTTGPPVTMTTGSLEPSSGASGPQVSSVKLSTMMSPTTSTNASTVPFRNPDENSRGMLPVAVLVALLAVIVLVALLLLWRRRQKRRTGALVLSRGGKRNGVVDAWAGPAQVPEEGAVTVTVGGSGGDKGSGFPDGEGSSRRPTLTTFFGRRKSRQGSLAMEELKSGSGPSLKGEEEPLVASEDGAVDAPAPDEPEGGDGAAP
CD43 on human peripheral T cells (human), sequence (P16150 20-400): as above
CD43 expressed on the surface of NCI-N87 gastric cancer cells (human), sequence (P16150 20-400): as above
CD43 on Jurkat cells (lymphoblastoid leukemia cell line; ATCC TIB-152) (human), sequence (P16150 20-400): as above

As to “MEM-59 (anti-CD43; Biovendor, Candler, NC) (antibody)”, the % of Binding in test [1] is over 70%; in [2], over 80%.

B1: monoclonal antibody 5F1 (antibody, V domains shown)
VH: EVQLQQSGPELVKPGASVRMSCTASGYTFTSYVMHWIKQKPGQGLDWIGYINPYNGGTQYNEKFKGKATLTSDKSSSTAYMELSSLTSEDSAVYYCARRTFPYYFDYWGQGTTLTVSS
VL: DVLMTQTPLSLPVSLGDQASISCRSSQSILHSNGNTYLEWYLQKPGQSPKLLIYKVSNRFSGVPDRFSGSGSGTDFTLKISRVEAEDLGVYYCFQGSHAPLTFGAGTKLELK
notes: also called m5F1; m133-5F1
For B1, the Mean Fluorescence Intensity in test [3] was determined as 733; in [4], 129; in [6], 1030; in test [7] it was 21.7; in test [8] it was 825; in test [9], 1000. For the same molecule, the Mean Fluorescence Intensity was determined as 60.3 in test [10], 9.78 in [11] and 888 in [13]. Further, the % of Binding in test [5] was under 10%; in [1], over 80%; in test [2], under 10%; in test [14], over 80%. In addition, the binding result with 9F9-01-03-21 is “no binding”; in the test with 9F9-01-03-24 it was “no binding”; with 9F9-01-03-25, “no binding”; in the test with 5F1-01-2-23, “binds”; in the test with 9F9-01-03-17, “no binding”; with 9F9-01-03-18, “no binding”. For the same molecule, the binding result with 5F1-01-2-04, in the test with 5F1-01-2-18, with 5F1-01-2-09, in the test with 5F1-01-2-17, in the test with 5F1-01-2-06 and with 5F1-01-2-13 was “binds” each time. The binding result in the test with 5F1-01-2-14, with 5F1-01-2-21, with 5F1-01-2-22 and in the test with 5F1-01-2-16 was “binds” in each case. This molecule came in with a % Apoptosis (annexin-V+) in [12] of over 40%.
